Target: T1, RIG-I (recombinant) (human? (GeneID 23586), UniProt O95786 1-925)
T1 sequence: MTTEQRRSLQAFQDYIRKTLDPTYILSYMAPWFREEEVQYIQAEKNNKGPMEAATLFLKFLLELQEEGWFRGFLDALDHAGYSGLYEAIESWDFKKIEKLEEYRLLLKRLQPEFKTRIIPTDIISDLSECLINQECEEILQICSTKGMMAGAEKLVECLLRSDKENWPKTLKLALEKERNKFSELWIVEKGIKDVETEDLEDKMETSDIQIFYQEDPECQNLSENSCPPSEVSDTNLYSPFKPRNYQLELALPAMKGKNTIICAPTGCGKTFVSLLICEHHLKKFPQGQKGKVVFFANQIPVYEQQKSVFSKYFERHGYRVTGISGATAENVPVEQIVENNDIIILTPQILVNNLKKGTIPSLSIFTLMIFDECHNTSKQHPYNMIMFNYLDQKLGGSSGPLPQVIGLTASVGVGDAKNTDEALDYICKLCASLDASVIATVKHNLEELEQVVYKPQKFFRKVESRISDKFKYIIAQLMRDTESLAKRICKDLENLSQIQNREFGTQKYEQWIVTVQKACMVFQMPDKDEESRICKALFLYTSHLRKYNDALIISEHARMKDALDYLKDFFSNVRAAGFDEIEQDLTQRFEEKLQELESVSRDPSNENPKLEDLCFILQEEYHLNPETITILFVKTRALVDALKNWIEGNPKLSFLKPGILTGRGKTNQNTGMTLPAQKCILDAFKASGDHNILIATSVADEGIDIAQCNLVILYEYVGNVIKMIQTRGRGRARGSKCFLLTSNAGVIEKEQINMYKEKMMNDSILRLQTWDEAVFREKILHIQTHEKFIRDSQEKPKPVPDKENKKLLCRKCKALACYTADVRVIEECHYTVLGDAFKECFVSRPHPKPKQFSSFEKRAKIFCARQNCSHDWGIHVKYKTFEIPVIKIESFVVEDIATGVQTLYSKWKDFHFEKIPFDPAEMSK
Test: EMSA

B1: 5'-pppA synthetic 24 bp dsRNA (dsRNA)
RNA 1: AGCAAAAGCAGGGUGACAAAGACA
RNA 2: UGUCUUUGUCACCCUGCUUUUGCU
modifications: 5'-ppp on sense strand only
Kd: 0.4 nM

— doi:10.1101/2023.12.22.573000
